The values below come from the DeepSol protein solubility set.

The nature of this data set: soluble on expression in E. coli; label from the status in PepcDB or PDB records.
Regarding “MGSDKIHHHHHHGNLEEMNIDPDNATQTHPKLLLTQICMNAFKRGTDGMYATKKVIQADGESADQYYKWTRGSFGYYDNLRNVQKMGEEAERVNAPVYTALTKFFRAYYFYELTLRFGDIPYSQALKGEKEEIYTPEYDAQEDVFAGILQELREADEILANDASVIDGDIIYNGNSTQWRKLINSFRLKVLMTLSNHTTVGNINIASEFKNIATNSPLMNSLADNGQLVYLDQQGNRYPQFNAQWSGYYMDDTFIQRMRERRDPRLFIFSAQTNKGKTEGKPIDDFSSYEGGDPAAPYSDAIIKVSEGTISPINDRFRTDPIVEPTMLMGYAELQQILAEAVVRGWISGNAQTYYEKGIRASFSFYETHAKDYAGYLNENAVAQYLKEPLVDFTQASGTEEQIERIIMQKYLVTFYQGNWDSFYEQLRTGYPDFRRPAGTEIPKRWMYPQGEYDNNGTNVETAITRQFGAGNDKINQATWWQKKS”, the “soluble on expression in E. coli” value is recorded as “not soluble”.
Consider “MGSDKIHHHHHHMSSSPSTLNFGSMTDVFGFLIEIDKLKSVQRRTKIIGSERHEDSAEHSWHFAVAAMALAPYAGEGVDIQRVIQMALIHDIVEIDAGDVIVYDLSARLAIHDQEVAAAARIFGLLPEPQRQQFQDLWEEYEANETPSAQFALVLDRVMPMLMNLYNGGQSWVENGIRLEQVLDRAEFIATINPELWQYMKQHLEDAKAKGWLL”, for which the “soluble on expression in E. coli” value is listed as “not soluble”.
Regarding “MRAKKRKFLQKEELSKLLQSLDMSQIGFGWFVMLVAKTGMRYAEALAITPADFDWTAQTISINKTWDYKYNKGFAKTKTLSSVRTIKIDWQIVGQFKPLIKDFPEDEPIFVEKFGDGTYKRQFNSTINNFLAVKCNETGITQISFHALRHTHASVLLAEGVSIHTISARLGHADVGVTQETYALEHHHHHH”, the “soluble on expression in E. coli” value was “soluble”.
“SMPHSVTLRGPSPWGFRLVGGRDFSAPLTISRVHAGSKAALAALCPGDLIQAINGESTELMTHLEAQNRIKGCHDHLTLSVSRPEGESDL”: the “soluble on expression in E. coli” value is “soluble”.
In the case of “MKIVCSKEQLMEGINVVQKAVPTKATLTILEGILLEAYDNFKMTGNDLELGIECLIDADILEKGSIVLNSKMFGDIVRRLPDSEVLIEVKENNTVIIECDNSHFELRGMPSDSFPSLPSIEKENMIKVSQKAIRDMIRQTLFAVSTEGTRPILTGSLIECAGNEITFVSIDGFRMALRKNFNNEGFSEFSVVVPAKTLSEIGKILQPVDEDIYIYSSQNQILFEIGNCKVVSRLLEGEYLNYKSIIPPEYETSVRLRTEDLLSSLERASLITSDEKKYPVKFNIIDDKIIITSNTEIGAVREEIRVEVNGSNMEVGFNPRYFIEALRVIDDELVDIYFNSSVGPCTIRPLEGDSFAYMILPVRINK”, the “soluble on expression in E. coli” value is listed as “soluble”.
As to “MGSKKLKRVGLSQELCDRLSRHQILTCQDFLCLSPLELMKVTGLSYRGVHELLCMVSRACAPKMQTAYGIKAQRSADFSPAFLSTTLSALDEALHGGVACGSLTEITGPPGCGKTQFCIMMSILATLPTNMGGLEGAVVYIDTESAFSAERLVEIAESRFPRYFNTEEKLLLTSSKVHLYRELTCDEVLQRIESLEEEIISKGIKLVILDSVASVVRKEFDAQLQGNLKERNKFLAREASSLKYLAEEFSIPVILTNQITTHLSGALASQADLVSPADDLSLSEGTSGSSCVIAALGNTWSHSVNTRLILQYLDSERRQILIAKSPLAPFTSFVYTIKEEGLVLQAYGNS”, the “soluble on expression in E. coli” value is “soluble”.
For “MSLNLGDLTNFVEKPLAAVSNIVNTPNSAGRYRPFYLRNLLDAVQGRNLNDAVKGKVVLITGGSSGIGAAAAKKIAEAGGTVVLVARTLENLENVANDIRAIRGNGGTAHVYPCDLSDMDAIAVMADQVLGDLGGVDILINNAGRSIRRSLELSYDRIHDYQRTMQLNYLGAVQLILKFIPGMRERHFGHIVNVSSVGVQTRAPRFGAYIASKAALDSLCDALQAETVHDNVRFTTVHMALVRTPMISPTTIYDKFPTLTPDQAAGVITDAIVHRPRRASSPFGQFAAVADAVNPAVMDRVRNRAFNMFGDSSAAKGSESQTDTSELDKRSETFVRATRGIHWEGHHHHHH”, the “soluble on expression in E. coli” value is listed as “not soluble”.
Turning to “MGSDKIHHHHHHMKWEEKRDMVKIATWYYHYGWTQAQIAKKIGISRSIISKTLQRAKDLGIVEIFIKDETYYTVDLEQKLEEKFGLEEAIVVATHDMSEEEALNFLAKEAAYTLSKRIAKVKTLGISWGKTIRKFANEFPFIPHKDLTIIPLIGGMGSSDIDLHSNQICYDLKKKMKCHSKYLYAPALVEDTEMKTDLSKNKYISEVLEEGKTVDMAIVGVSSPYNHSTMEEIGYINSEDIEELRYKDVVGDINSRFFTADGKEAKTEINTHVIGLSLEELKNIPTVVALANGLQKKEALVAALNAGLIDVIVITDRMAEYILQKND”, the “soluble on expression in E. coli” value was “not soluble”.
Turning to “MWHSIEQAISVETGKSFYISEKKEISTRPASSSSFTCSYDNKEPPPNLSFKITDGHRSYFLKINNKDYLENFQAEAYSLKQLNSLANIASPNVTAIGTSLDKSFLVLDYIDFSKAKPMLWYQLGQQLAQMHYENRHGQFGWQHDNFIGSTIQPNHWSSNWTTFFSDQRIAWQLQLLSERSIMLGNIEHITQVCHDALLHHQVSPCLVHGDLWQGNTGFSGEKAMIFDPACYYGDREVDIAMTELFGHFPDDFYHGYQAEYPLDDGYEQRKLVYNFYHILNHANIFGGIYIDQAKATLSRIMSLPLHLEHHHHHH”, the “soluble on expression in E. coli” value is reported as “not soluble”.
As for “MTLHLPGADGTLRAYEPRTEPLPTLRATSGSAFSSRTVFSAAHVVADPYADTTPDGPAAVDWDATLAFRRHLWSHGLGVAEAMDTAQRGMGLDWPTAAELIRRSAAEARATGGRIACGVGTDQLTATAATLADVRSAYEEQLAVVEESGAQAILMASRALAATAKGPDDYLEVYGHLLRQAAEPVILHWLGPMFDPALEGYWGSSDLDAATDTFLEVIAAHPDKVDGIKVSLLDAQREIDLRRRLPRGVRCYTGDDFNYPELIAGDEQGFSHALLGIFDPLGPLAAEAVRVLDTGDTDGFRALLDPTVELSRHLFRAPTRYYKTGVVFLAWLAGHQSHFTMVGGLQSARSLPHLARAYELADGLGLFPDPKPAEERMRNLLALYGVN”, the “soluble on expression in E. coli” value was “not soluble”.
For “MYEAHFGLKQLPFTLTPNTSLFHGLSPHYEAIHTVLSAISMGEGIIKVTGEVGTGKTLVCRMLINELPSNVELLYLPNPVMNGHELRQALAKELWLDQSGDDIALIDRIHEKIIDLHAEGKLVVVFIDEAQALSDEALETLRLFGNLETDYKKLLQIVLFGQPELDERLQQHNLRQLRQRITFSALLRALNMNETVAYIRYRIAESGCENNPFSLVQMKAIWKATNGIPRLINQVCHKSLLIAFSEQVNNVPSKAVFNAIIDTADTVKPKHYFPTFWGWRVSLEHHHHHH”, the “soluble on expression in E. coli” value is “soluble”.
As to “MQAIQNTQEIRRQADLTKAQWWLQQLCETDRMIVGRKRRDVQKLIHRLLSEPKGTSVPKSSPVNRLFPHPLSFELDPKWPAMDSFYNRISAAMRTIAPKKTASQQVVISCKQLKPAKLDMKTLRQVMEHELAELGDEKLQRMVCSFCYRAQPTHRLYTIEDVIKCQECWRGPFPSRTIFDALITDVAEKWAEKVAKRVECLYGNWDEKLTPMVRMLQNNVLLSEDIAALLRTCTDPHEFKEACEVIIITTIVFYLEYVDFRRSCEALMAIKPTVTYGQLFEIFQIYFPNRAKGIKTGDFL”, the “soluble on expression in E. coli” value is on record as “not soluble”.
With “MNYLESEISALYASAHELCYLGMDGRPIYSDQFTRLNRDVFSQANALYDKRGNSHEEEARLCLSLLMGYNATLYNNGDKEERIQHILDRCWDVLEHLPASLLKVQLLVYCYGEVFDEELAREAQAIIDTWQDRKLSEEEREVVERLKDVQENPYPWSEVE”, the “soluble on expression in E. coli” value was “not soluble”.
In the case of “MLVRDVMKSPVLTVGPEATLEEAYKLLLERGIRHLPVVEEGRLVGIVTDRDIRLATSHLNPKGPCPGCTRVGEVMTREVVTAHPLDPVEEAARVMRERKIGCLPVLEDEALVGIVTGIDLLDALLRLTGVTEPSGRLEVRLPDRPGELARLTGFLAGRGVNIHSLLSYPEGREFVRAVVRVNTLETHLLAEALRREGFDVLWPPKKPW”, the “soluble on expression in E. coli” value is reported as “soluble”.
As to “MHLKNNQTLANGATVTIYPTTTEPTNYVVYLHGGGMIYGTKSDLPEELKELFTSNGYTVLALDYLLAPNTKIDHILRTLTETFQLLNEEIIQNQSFGLCGRSAGGYLMLQLTKQLQTLNLTPQFLVNFYGYTDLEFIKEPRKLLKQAISAKEIAAIDQTKPVWDDPFLSRYLLYHYSIQQALLPHFYGLPENGDWSAYALSDETLKTFPPCFSTASSSDEEVPFRYSKKIGRTIPESTFKAVYYLEHDFLKQTKDPSVITLFEQLDSWLKER”, the “soluble on expression in E. coli” value is recorded as “soluble”.
Take “MGSDKIHHHHHHMNLRQLKYFLATAELGQVSRAASELSISQSSVTTAIRELEQSMGTTLFNRTAHGMDLTPTGRDLMSAARDVMEKVQIAQDIGQNHSDVTGTINIAATYTVCGYFLPYHLDRLSHRFPNLTINISELNRESIEEGLISNRFDVAVILTSNTSNPELATQTLMRSHRRLWVPQNHPLAGREFASFEDVAAQDYIMLTVDEAANTSMKYWGPTGLMPRVRMRTSSTEAVRSMVANGLGVTILSDMVYRPWSLEGRRISTVVMDREIPSMDVGLAWRRNQEMPNAARHFVDYFRNAYLSPQMAHTAWRG”: the “soluble on expression in E. coli” value was “not soluble”.
With “MGSDKIHHHHHHMNNLPLLDNNWNTDLYEDKHAFVWQYGENLLKVLNPKLGESILDLGCGTGQLTEKIAQAGAEVTGIDRASSMIETARQNYPHLRFDVADARDFQVLKPLDAVFSNAVLHWIKEADAAIASIHQALKPGGRFVAEFGGKGNIQAIVTALYSALEAIAISPQALNPWYFPSIGEYATLLEQQGFDVTYATLFARPTPLTEGEAGMANWLEMFADVFLAGLSADQKIQIIRTVEEHLLPTLYQQGNWTADYRRIRIVAIKL”, the “soluble on expression in E. coli” value is “not soluble”.
With “MGESPSNPSGLTFRLADDRKLKAIYVPAAEKASVNLGFLRHALVAGGFADLFIYDHALVELIKRYNAATQEFVYDVGEQRDGTYIIRNTPDNIEAYLTLTRPYGGKPVCPEQLHQALREQGVIYGVLTDEIETAIEAGEATDLLIARGIPPEQGTDAELVSLIPQARDRQPELQDNETVDYRDRGEISSVKAGDPLMRRIPPTPGKPGTNIMGKEVPAPPAKDLKFTPNLPGTTFAPDDPDLLIAAIDGQPVLVANGVMIEPVIKIKNVDLSSGNISFKGSVDISGDITPGMTVRATGDITVGGVVEGATLEAEGDIVVRGGIIGPGENRDPKGKSGQERALIRAKGNIEALFVENSLVEAGGMIQIAGFAMQSNLVAGTQVVVGQEGTTKGHIIGGSCQAVSRIQAVTLGSHAGVHTTVSVGVNPHVKEKLSTVKLKIAEAERELDELTKRLDYFASTPLKGSPEQINETRQAKDKLVTALSELKGERKRLEKRLEQASDALIRVERAVLSGVVISIGTKTLEVKDDMEGGITFRLEDDAIVASQLEHHHHHH”, the “soluble on expression in E. coli” value is on record as “not soluble”.
Next, “MIRKDLQKLEQEGLLKRTYGGAILERQTIHDDNIRPRLMKNLGEKDIIAKLALKEIKDGDFIFLDASTTNYSIASMLLNTKKQVTVVTNMNRIAILFDSHPSIDVICIGGIYNKNLGGTIGSKAIEDVKSYRFHKAFVGVGGINLVEDFISNFNLEEASMKNAIIKSSLKTYLVAENEKFYTDGICEFAKCEDIDFIISDKKPNEEILKLLKERNISIIYLEHHHHHH”: “soluble”; “GPGSMYVLYCCTMQGYSQLSGSSSDENIVHPLSSDGNTVTISPTYTLRMHFLPQHQVAKGAEKNNQIELSVAPTDALIINFPEGTEGSETEVMEQLIGTGRWQWVVPMRPFDGYDSTRSYRLKARRFPVAAGDDSNELTPPTIVHVPNISSIIEAGMRVSNRSQSGLHRSRGGVVCFVVGADPSVVRVPEGKKLLEQLFSEVGRSTISTATLGLRQLHNANWALFISPCRTNKLFAWKERLPSSSVSSGSLWWLCAAADVLLEINTAAEWVTAHFD”: “not soluble”.
